Reference: a protein production outcome set (Wang et al. 2014)

Test: label from the status in PepcDB records

Sequence	protein production
DRSRLQCYSEDVTEYRKMEQGLNDLHHRLQAYREYSATGFLLVDARTKTVVEANSAFCQLLGYEESEVLDFTLYQLIAAERPVIEELLINLETQNYLSVPELEYRNREGQTVQVKGEVYRLPWEDREVYCFVMRT	failed
MVQEEKAMEAINDALRALRKRHLLEEGAHAPAISALSKPLISQGSEWKEKTEKLETELQQCYKAQSRLSEQLVIEVAESRTSKAILQEKELLINDLQKELTQRREDCTRLQEELEEKTKTVDVLIAENLEIRSQLEEMTSRVQKAETENKMLIDRWMLQKMQDAERLNEANDLYEEMLAKLKANGLETLARQQVDGIVRRNEDGTDHFVESTIPSTCANRIHAHEGGCGSIVFEYNSGTLFTGGQDRAVKMWDTNSGTLIKSLYGSLGNILDMAVTHDNKSVIAATSSNNLFVWDVSSGRVRHTLTGHTDKVCAVDVSKFSSRHVVSAAYDRTIKLWDLHKGYCTNTVLFTSNCNAICLSIDGLTVFSGHMDGNLRLWDIQTGKLLSEVAGHSSAVTSVSLSRNGNRILTSGRDNVHNVFDTRTLEICGTLRASGNRLASNWSRSCISPDDDYVAAGSADGSVHVWSLSKGNIVSILKEQTSPILCCSWSGIGKPLASADKNGYVCTWT	failed
MAASVANCCFSVLNASVKIQSSSISSPWCFVSASSLTPRASSNIKRKSSRSDSPSPILNPEKNYPGRVRDESSNPPQKMAFKAFGSPKKEKKESLSDFSRDQQTDPAKIHDASFLNAVVKVSKSNSLSSLKFTLLAFEPTRASFQVYCTHTAPDYSLPWQKQRQFTSTGSAFMIGDGKLLTNAHCVEHDTQVKVKRRGDDRKYVAKVLVRGVDCDIALLSVESEDFWKGAEPLRLGHLPRLQDSVTVVGYPLGGDTISVTKGVVSRIEVTSYAHGSSDLLGIQIDAAINPGNSGGPAFNDQGECIGVAFQVYRSEETENIGYVIPTTVVSHFLTDYERNGKYTGYPCLGVLLQKLENPALRECLKVPTNEGVLVRRVEPTSDASKVLKEGDVIVSFDDLHVGCEGTVPFRSSERIAFRYLISQKFAGDIAEIGIIRAGEHKKVQVVLRPRVHLVPYHIDGGQPSYIIVAGLVFTPLSEPLIEEECEDTIGLKLLTKARYSVARFRGEQIVILSQVLANEVNIGYEDMNNQQVLKFNGIPIRNIHHLAHLIDMCKDKYLVFEFEDNYVAVLEREASNSASLCILKDYGIPSERSADLLEPYVDPIDDTQALDQGIGDSPVSNLEIGFDGLVWA	failed
IMAKTAKVAVSQIVEHPALDATRQGLLDGLKAKGYEEGKNLEFDYKTAQGNPAIAVQIARQFVGENPDVLVGIATPTAQALVSATKTIPIVFTAVTDPVGAKLVKQLEQPGKNVTGLSDLSPVEQHVELIKEILPNVKSIGVVYNPGEANAVSLMELLKLSAAKHGIKLVEATALKSADVQSATQAIAEKSDVIYALIDNTVASAIEGMIVAANQAKTPVFGAATSYVERGAIASLGFDYYQIGVQTADYVAAILEGKEPGSLDVQVAKGSDLVINKTAAEQLGITIPEAVLARATSTK	not failed
MATEPEAAEPVVPSLVDRYFTRWYKPDVKGKFCEDHCILQHSNRICVITLAESHPVLQSGKTIKSISYQISTNCSRLQNKVSGKFKRGAQFLTELAPLCKIYCSDGEEYTVSSCVRGRLMEVNENILHKPSILQEKPSTEGYIAVVLPKFEESKSITEGLLTQKQYEEVMVKRINATTATS	failed
MVFKRRDRRSPLQVLWELIWPRGGWTRAFHYVKHRVRRLPDRPERIARGIGAGVFASFTPFYGIHFVIAAILARLINGNILAGLSGTFFGNPLTYVPIGVVSLQTGHFLLGTEFHEGAKQGLMRKFARAAGDLKDNFLALFTDRDADWQALGLFFDEVFFPYMIGGIAPGIVAGVVCYYLSLPVISTYQKRRRAKIKAKFEAIKKKAQADLPNPGNPG	failed
MNLAQSNREIVELLVPIIVGYMSLFISSIFVYRIGKIILRRDSISLISAIIFLLNPSTIFCLLYSPKNYGFASVGYYFVPLLYLMSYYYYLKKDWKKFTAFTVALTLTSPLSYLIAITFIVYLLIRNRIDEKSLSWSLLRENKISLVLILVSLIIGVLVIPQTLQHFSSLLIASIYPQYTSLNYIYDNVYFKLTYWFILFGVFSFLPIFSPLELIPALPYLLVGLFSSYIPYYSYGYYPYYFLALPMLIMGFIRTINLIKDDKRTMLISYVFIFLFNVALLYVILE	failed
MRHLGLRNVISKLPAKINAAREFATSALVLIVFFGLLLILGRQFFRDSVVLEPISVPLHLEESGLNGGVAAQWLIDSIRTIQRNAASTKETKAIQATPKQINIEMPGVGFSLATIEQIIREALALPSPFIKGEIIKLGDSYQIRLRLPGAPYIHIEQPLGDKDVEKLIAKSAEKILLLKDPYIVAVDYYRKAEYKKAIEVINNMQPGADRLQSAYNELLLAAIATKQLEHEKASLHLKKADQLAPNLGVVKLNQAIQHALKKDPSTALSKYKEAKQLNLELQDDAFHSQILTELGRELVTDDSAEEKLALFRKAIDLAPENASAIIRLAEVLAHRQRPEENNEMLKLYEAAIGLVPNKPKYHFQYGKTLWEMGNKDKGCVQVKKAVELKPAMRVLANKYQCSK	failed
MAERRVALVMADNDYRLVRPLANPIHDGEAMEAALKKLGFEVILETNRDLRRMRRALDDFREDAKGADVALVYFSGHGVEISGDNRLLPVDADASSVDQLDKTSLPLEEVRDAVAATAKVGLIVLDACRSDPFSASSGDGRGATSLTKDVADKVKPGLGRVGRAENILFAFSAAPGETAADGTGENSPFTTALTKYLATDGLEIRSVLTLVQQEVYDLSRGKQLPYVESGLPKLFFAAAAKEQLPERERLLLAMADVTPEMRGEVEQIASDADMPLAPLYGALISSDASHLSADSLNARLREAADAFVKVRSEMKTLASDDPQVAELRRQAEEQLSLGAFDGARALLAKAADIDNVSRQALKVNFASRTLSEAATRFLSGGAARADLDYTTAIGDFETVLSLYGEAGQTSLSLEQADRQSRTLEELGILYTTVGNVEAAGRAFTALLTNLEQRSRQETDPSVKRDLAISHIKLANIKMVQGDLPTSLEHYEAARDMLQDLTASVPDEKSWLGDLAMANDKIGNVLATQGDVGAAAKAYQQSLSIKRKLVDAQPNSASLLRDLTITYDEIGDLARTAGQLDGAQTAFEESLRIRLVLAENKPDPERQRAVSVSHERIGDVLRERGDAAGALVAYSKSQAIAEELVRHDPNDTDLKRDLSISYAKIGNALNDQENWPAALASYQQALAVARELAADDPGNTDWQRDLSVCLEKVAGVLDAQGDIRSALQNYQDSLAIVDRLTKLDPGNSDWQRDLSITLSEIGMLETRQRHFEGSRKAFEASLGIRQKLAQSDPNNAIWQFDLVQAYINYAYVAKDPKAVLTKALNLTLDLDRTGRLAPRDKPTIKYLRGLLAKLNAGKK	failed
SQSLKPEPFGRRAQAVETNKTLHEMKTRFLLFGETNQGCQIRINHPDTLQECGFNSSLPLVMIIHGWSVDGVLENWIWQMVAALKSQPAQPVNVGLVDWITLAHDHYTIAVRNTRLVGKEVAALLRWLEESVQLSRSHVHLIGYSLGAHVSGFAGSSIGGTHKIGRITGLDAAGPLFEGSAPSNRLSPDDANFVDAIHTFTREHMGLSVGIKQPIGHYDFYPNGGSFQPGCHFLELYRHIAQHGFNAITQTIKCSHERSVHLFIDSLLHAGTQSMAYPCGDMNSFSQGLCLSCKKGRCNTLGYHVRQEPRSKSKRLFLVTRAQSPFKVYHYQLKIQFINQTETPIQTTFTMSLLGTKEKMQKIPITLGKGIASNKTYSFLITLDVDIGELIMIKFKWENSAVWANVWDTVQTIIPWSTGPRHSGLVLKTIRVKAGETQQRMTFCSENTDDLLLRPTQEKIFVKCEIKSKTSKRKIR	failed
MQVRIERAERIESELEEHVGDQTFVEESRFLEEDEQREGEILDQIIFVDGKRRSFVRITTDEGITGIFAELCVGAVIWDREGGTKTLFSPDKPPVKERVLGFSQSFQEEGYEEVGGILFKVVKEGKDAMQSIDLYMRSLEIEEVRKHMDKNILIVKDGPAARELPFEENVGPIGLVKNIGVTELSKEDFKKLRFLKKGKRSKMFVSSRETPLKKVGAYVKLIDGEGIRGLVRLETYVKDDNQIPYIRKVFDDLAKTLPHLTADLPIPRLPENILPIQFLEENLSYYLTDKNYMNTRLFAYIGR	not failed
MVKHHHLYELSPMVTGWTICVMVLRIYKKFLNLNAFELRLVLADEWGTQIEATIGPRFSAFYFDRIKENQWKTITTFLVRPNCEAIKTTPHQFRILFMDHTIVTSSTPRETGLLNKFTPFDYIVDDVVGNDTLVDLIGALVNVGILTNTASNENDMAGFKLPFTIMDKNKDTLVCEAYGEIAVDLEKRFRAFRKNNVVIALAWWKILRFYPVAAIPEVYLLAPMLAKIVSYVAESGVDSLKSFVKAGLLFKAAVYSKETLSCVRLDRSWYFMLAFHMCELQEAIAILDGIKDVFPHAGLLYIMLHSCAGSIPWEFYRMYKRRYYKFSEVDLFADKLMFHINEVGPRRQGTYKNS	failed
MSKPGTPKHGAGSSSAAAAPEKISKYNISTEKCGDLTVIVQGDLSQQEKRAVFITVHDLGCNHNSFQEFVSSPCMTEIKERSCFIHVDVPGHADNAEALADGFPFPSLQSLGEDLVTVLDYLHVKYVIGLGEGAGANVLARFGLAHPSRVLGLILINATGSAASVVQSFKNKFISWKSDEVAQSAESFLMYHKFGHQIVGENPDKEKIVAEYQKRLHRSLNSKNIGLYVKAFMNRKDLTLKGCKVDVILITGMLSPYASMVEKLHRDVEKERVTILKIERAGDVLADAPGKVAQSILLFCKGQGLLTSVVMPGVDRGRAFSTASSGSLEGANGSRRLSRGISMEDYDKPNIRRLSIMNSELPKKE	failed
MSQMMQMYQQVGPAQFSAMIGQFAPYFASIAPQFVELRPGYAEVTFPKRREVLNHIGTVHAIALCNAAELAAGTMTDASIPAGHRWIPRGMTVEYLAKATGDVRAVADGSQIDWQATGNLVVPVVAYVDDKPVFRAEITMYVSQA	not failed
MVIQEGFSFGNFIIDVFSIFLFILWFWLLITISGDLFRRHDVSGFAKVLWVIFLIVLPYIGVFAYILTQGRGMAERNQERAREARNELRQVVGFSVADELEKLDRLKASGSISEDEFKRLRAKLVE	failed
MKLRSWEFYDRIARAYDSMYETPKWKLYHRLIGSFLEEYLKNPCRVLDLGGGTGKWSLFLQERGFEVVLVDPSKEMLEVAREKGVKNVVEAKAEDLPFPSGAFEAVLALGDVLSYVENKDKAFSEIRRVLVPDGLLIATVDNFYTFLQQMIEKDAWDQITRFLKTQTTSVGTTLFSFNSYAFKPEDLDSLEGFETVDIRGIGVMEYPDERISEREETIFRLEQELSRDRNIIWKADHIFFVLKKKRGA	not failed
MKDSQEVTHFSAARSSKWTQHDTYWLLSLFGTAVGAGILFLPINIGLGGFWPLVLMAVLAFPMTYLSHRGLARFVLSSRRPNADFTDVVEEHFGQNAGRLISLLYFLSIFPILLIYGVGLTNTVDSFLVNQADMVSPPRALLSGALVFGLIAIMLSGEKIMLRAFAIMVYPLAAILALLSLYLIPYWSMPSFDFPQTSDFLHTVWLAVPVVVFSFSHAAAISSFANIQRRHYGEQADQKSEQILRHTSVVLILFVLLFVFSCVLALSPQALQEAKAQNISVLTYLANVTDNPFIATLGPLVAFIAITSSFLGHFLGARESLSGLLTKNLGVSLRLAERLTIGFLFVTIWIAAILNPSILGMMEALSGPVIAMILFIMPMIAVFKVPALREHQKRFSTFFVLLVGLLAVSALLYSLLR	failed
